Results on one molecule are retold here after publication PMC5332220 (Biochemistry, 2016).

The target of assay [1] is T1, SspB_milli (UniProt P45206 1-150, A58V). The experiment in a line: fluorescence polarisation.
Assay [2] deals with T1, SspB_milli. The experiment in a line: fluorescence polarisation. This is another data set of the same source. A general note: In fluorescence polarisation assays a small probe gives low polarisation when free and higher when bound to something large.

B1: improved Light Inducible Dimer (iLID) (designed binder)
chain: MRGSHHHHHHGSLATTLERIEKNFVITDPRLPDNPIIFASDSFLQLTEYSREEILGRNCRFLQGPETDRATVRKIRDAIDNQTEVTVQLINYTKSGKKFWNVFHLQPMRDYKGDVQYFIGVQLDGTERLHGAAEREAVCLIKKTAFQIAEAANDENYF
modifications: flavin mononucleotide (FMN) cofactor; in the lit state a metastable covalent bond of FMN with Cys450
One may read the Kd as the concentration at which binding is half-saturated. On to B1, for which, in the assay with SspB_milli [1], binding was put at a Kd of 56 ± 6 µM. For the same molecule, the “fold weaker than the lit state” value with SspB_milli [2] is at least 25 fold.
